US20250152746A1, “BASE EDITING OF ANGPTL3 AND METHODS OF USING SAME FOR TREATMENT OF DISEASE” (Verve Therapeutics, Inc., priority 2020, published 2025)
In the oligonucleotide strings, read from the 5' end, every base follows the letter of its sugar. An asterisk marks phosphorothioate; unmarked linkages are phosphodiester. Other units and linkages are bracketed, terminal groups are in braces. A string of capitals states the bases alone. m = 2'-O-methyl; r = 2'-OH (RNA)

B1: GA238: PCSK9 gRNA; protospacer GCACGACCCCAGCCCTCGCC (SEQ ID NO: 231) (nucleic acid)
guide: GCACGACCCCAGCCCUCGCCGUUUUAGAGCUAGAAAUAGCAAGUUAAAAUAAGGCUAGUCCGUUAUCAACUUGAAAAAGUGGCACCGAGUCGGUGCUUUU
modifications: sugars from the 5' end m3 r94 m3, linkages s3 o93 s3 (s phosphorothioate, o phosphodiester), T or U not given here
B2: GA405: gRNA targeting PCSK9 with modifications to the tracr, for SpCas9 (nucleic acid)
guide: mU*mC*mA*rGrCrUrCrCrArGrGrCrGrGrUrCrCrUrGrGmGrUrUrUrUrArGmAmGmCmUmAmGmAmAmAmUmAmGmCmAmArGrUrUmArAmArAmUrAmAmGmGmCmUmArGrUrCmCrGrUrUrAmUmCrArAmCmUmUmGmAmAmAmAmAmGmUmGmGmCmAmCmCmGmAmGmUmCmGmGmUmGmCmU*mU*mU*mUmUrUmU
B3: GA235: PCSK9 gRNA; protospacer CACCGCTGCCGGCAACTTCC (SEQ ID NO: 228) (nucleic acid)
guide: CACCGCUGCCGGCAACUUCCGUUUUAGAGCUAGAAAUAGCAAGUUAAAAUAAGGCUAGUCCGUUAUCAACUUGAAAAAGUGGCACCGAGUCGGUGCUUUU
modifications: sugars from the 5' end m3 r94 m3, linkages s3 o93 s3 (s phosphorothioate, o phosphodiester), T or U not given here
B4: GA243: PCSK9 gRNA; protospacer GGCGAGGGCTGGGGTCGTGC (SEQ ID NO: 236) (nucleic acid)
guide: GGCGAGGGCUGGGGUCGUGCGUUUUAGAGCUAGAAAUAGCAAGUUAAAAUAAGGCUAGUCCGUUAUCAACUUGAAAAAGUGGCACCGAGUCGGUGCUUUU
modifications: sugars from the 5' end m3 r94 m3, linkages s3 o93 s3 (s phosphorothioate, o phosphodiester), T or U not given here
B5: GA242: PCSK9 gRNA; protospacer TCACCGCTGCCGGCAACTTC (SEQ ID NO: 235) (nucleic acid)
guide: UCACCGCUGCCGGCAACUUCGUUUUAGAGCUAGAAAUAGCAAGUUAAAAUAAGGCUAGUCCGUUAUCAACUUGAAAAAGUGGCACCGAGUCGGUGCUUUU
modifications: sugars from the 5' end m3 r94 m3, linkages s3 o93 s3 (s phosphorothioate, o phosphodiester), T or U not given here
B6: GA244: PCSK9 gRNA; protospacer TTCCGAATAAACTCCAGGCC (SEQ ID NO: 237) (nucleic acid)
guide: UUCCGAAUAAACUCCAGGCCGUUUUAGAGCUAGAAAUAGCAAGUUAAAAUAAGGCUAGUCCGUUAUCAACUUGAAAAAGUGGCACCGAGUCGGUGCUUUU
modifications: sugars from the 5' end m3 r94 m3, linkages s3 o93 s3 (s phosphorothioate, o phosphodiester), T or U not given here

System: PCSK9 gene
Assay: PCSK9 gRNA/SpCas9 editing in primary cynomolgus hepatocytes (Tables 2, 22)
Assay type: cell-based, cynomolgus monkey
Conditions: for Cyno Primary Hepatocyte Editing % 100: 100 ng/RNA/mL; for Cyno Primary Hepatocyte Editing % 100 / Cyno Primary Hepatocyte Editing % 500 / Cyno Primary Hepatocyte Editing % 2500: SpCas9 mRNA MS002 1:1 by weight; for Cyno Primary Hepatocyte Editing % 500: 500 ng/RNA/mL; for Cyno Primary Hepatocyte Editing % 2500: 2500 ng/RNA/mL
Protocol: In set of experiments, PCSK9 gRNAs were co-transfected with an equivalent amount (1:1 ratio by weight) of in vitro transcribed commercially available SpCas9 mRNA MS002 purchased from TriLink Biotechnologies into primary human hepatocytes at 2500, 500, or 100 ng/RNA/mL and processed as described in detailed methods. Extracted genomic DNA was analyzed for gene editing at the target site with next-generation sequencing of PCR amplicons generated around the target sites. Samples were prepared using the Nextera XT DNA library preparation kit (Illumina) according to the manufacturer's protocol. Briefly, two rounds of PCR were performed first to amplify the region of interest and second to add DNA sequences required for next generation sequencing and sample identification to the initial product. The final amplicon was sequenced on the Illumina MiSeq instrument according to the manufacturer's protocol. A wide range of editing activities (Table 2) were observed. In a second set of experiments, ANGPTL3 gRNAs were co-transfected with an equivalent amount of in vitro transcribed SpCas9 mRNA (1:1 ratio by weight) into primary human hepatocytes and processed and analyzed similarly (Table 3).
[…] Genomic DNA was processed, sequenced, and analyzed as described in the detailed methods section. GA266 was transfected independently twice to serve as two positive controls.
Plating, culturing, and transfection of primary hepatocytes. Primary human liver hepatocytes (PHH) and primary cynomolgus liver hepatocytes (PCH) from BioIVT were cultured per the manufacturer's protocol. Briefly, primary human hepatocytes and primary cyno hepatocytes were obtained as frozen aliquots from BioIVT. Four lots of primary human hepatocytes, each derived from a de-identified individual donor, were used for the experiments: STL (main donor) was used for all experiments, including screening experiments and off-target experiments; HLY, JLP, and TLY were used for off-target experiments. The HFG lot of primary cyno hepatocytes were used for experiments. Following the manufacturer's instructions, cells were thawed and rinsed prior to plating in 24-well plates that had been coated with bovine collagen overnight, with a density of approximate 350,000 cells/well in INVITROGRO hepatocyte medium supplemented with TORPEDO antibiotic mix (BioIVT). The cells were thawed and resuspended in hepatocyte thawing medium followed by centrifugation at 100 g for 10 min at 4° C. The supernatant was discarded, and the pelleted cells resuspended in hepatocyte plating medium. Each vial contains approximately 5 million cells that were used for plating one 24-well plate. Plated cells were allowed to settle and adhere for 4-6 h in a tissue culture incubator at 37° C. under 5% CO2 atmosphere. After incubation, cells were checked for monolayer formation. The incubating media were then replaced with fresh hepatocyte maintenance media (complete INVITROGRO medium obtained from BioIVT, the cell line provider). The cells thus became ready for transfection. Each of the gRNAs were co-transfected with an equivalent amount of in vitro transcribed ABE8.8 mRNA (1:1 ratio by molecular weight) into primary human hepatocytes via MessengerMax reagent (Lipofectamine), using various dilutions to assess for editing activity at different concentrations of test article. MessengerMAX from Thermo Fisher is used for transfection. Solution A: desired amount of guide RNA is mixed with 1:1 wt ratio of mRNA in OptiMEM. Solution B: MessengerMAX in OptiMEM. After mixing solutions A and B, the mixture was incubated at room temperature for 20 min. 60 μL of the incubated solution was added dropwise to each cell wells. For protospacer sequences that were a perfect match to the corresponding cynomolgous monkey PCSK9 or ANGPTL3 gene sequence, each gRNA was also co-transfected with an equivalent amount of ABE8.8 mRNA (1:1 ratio by molecular weight) into primary cynomolgous hepatocytes, and followed the same transfection protocol. […]

Molecule | Cyno Primary Hepatocyte Editing % 100 [%] | Cyno Primary Hepatocyte Editing % 500 [%] | Cyno Primary Hepatocyte Editing % 2500 [%] | Cynomolgus Primary Hepatocytes-% Editing (SpCas9 mRNA MS002, 625 ng/test article/mL, rep1) [%] | Cynomolgus Primary Hepatocytes-% Editing (SpCas9 mRNA MS002, 625 ng/test article/mL, rep2) [%] | Cynomolgus Primary Hepatocytes-% Editing (SpCas9 mRNA MS002, 1250 ng/test article/mL, rep1) [%] | Cynomolgus Primary Hepatocytes-% Editing (SpCas9 mRNA MS002, 1250 ng/test article/mL, rep2) [%] | Cynomolgus Primary Hepatocytes-% Editing (SpCas9 mRNA MS002, 2500 ng/test article/mL, rep1) [%] | Cynomolgus Primary Hepatocytes-% Editing (SpCas9 mRNA MS002, 2500 ng/test article/mL, rep2) [%] | editing efficiency compared to positive control GA266 (SpCas9 mRNA MS002, 2500, 1250, 625 ng/test article/mL)
B1 | 0.94 | 4.01 | 17.92 | – | – | – | – | – | – | –
B2 | – | – | – | 26.2 | 26.36 | 35.84 | 35.88 | 41.85 | 47.33 | slightly lower editing efficiency
B3 | 2.51 | 17.51 | 50.03 | – | – | – | – | – | – | –
B4 | 0.51 | 1.84 | 10.18 | – | – | – | – | – | – | –
B5 | 1.79 | 7.13 | 31.71 | – | – | – | – | – | – | –
B6 | 1.63 | 7.89 | 28.16 | – | – | – | – | – | – | –
